Reference: patent US20240270821A1, “GIP/GLP1/GCG TRI-RECEPTOR AGONISTS AND USES THEREOF” (priority 2023, published 2024)
Starred links: 1 amine or outer side, 2 acyl side, 3 side chain; linkers in the order of their positions; H or OH if unused. Non-standard residues stand in square brackets, D forms with d. Groups on a side chain read outwards from the residue. No end group written: not given here. *: point of attachment. C18 diacid = O=C(O)CCCCCCCCCCCCCCCCC(=O)*; γGlu = O=C(O)[C@H](CCC(=O)[*:2])N[*:1]; 4Pal = N[C@@H](Cc1ccncc1)C(=O)O; αMeL = CC(C)C[C@](C)(N)C(=O)O; Dab = NCC[C@H](N)C(=O)O; Dap = NC[C@H](N)C(=O)O; AEEA = NCCOCCOCC(=O)O; Aib = CC(C)(N)C(=O)O

T1: human GIP receptor (human) (UniProt P48546)
T1 sequence (looked up): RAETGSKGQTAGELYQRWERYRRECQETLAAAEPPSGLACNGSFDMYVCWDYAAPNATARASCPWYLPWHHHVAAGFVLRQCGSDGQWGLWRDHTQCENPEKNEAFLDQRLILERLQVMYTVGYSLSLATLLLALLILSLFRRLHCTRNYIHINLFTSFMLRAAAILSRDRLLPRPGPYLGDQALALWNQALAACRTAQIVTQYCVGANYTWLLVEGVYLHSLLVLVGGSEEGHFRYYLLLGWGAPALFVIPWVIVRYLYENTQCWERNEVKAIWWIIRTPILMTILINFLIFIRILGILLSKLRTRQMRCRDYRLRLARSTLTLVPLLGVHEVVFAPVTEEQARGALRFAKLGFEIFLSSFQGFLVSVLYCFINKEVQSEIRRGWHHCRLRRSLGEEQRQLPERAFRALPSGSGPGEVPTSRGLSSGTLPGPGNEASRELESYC


What was measured:
Test in all cases: cell-based or functional assay
[1] = target: human glucagon receptor (human) (UniProt P47871)
Chain of human glucagon receptor (human) (P47871 26-477): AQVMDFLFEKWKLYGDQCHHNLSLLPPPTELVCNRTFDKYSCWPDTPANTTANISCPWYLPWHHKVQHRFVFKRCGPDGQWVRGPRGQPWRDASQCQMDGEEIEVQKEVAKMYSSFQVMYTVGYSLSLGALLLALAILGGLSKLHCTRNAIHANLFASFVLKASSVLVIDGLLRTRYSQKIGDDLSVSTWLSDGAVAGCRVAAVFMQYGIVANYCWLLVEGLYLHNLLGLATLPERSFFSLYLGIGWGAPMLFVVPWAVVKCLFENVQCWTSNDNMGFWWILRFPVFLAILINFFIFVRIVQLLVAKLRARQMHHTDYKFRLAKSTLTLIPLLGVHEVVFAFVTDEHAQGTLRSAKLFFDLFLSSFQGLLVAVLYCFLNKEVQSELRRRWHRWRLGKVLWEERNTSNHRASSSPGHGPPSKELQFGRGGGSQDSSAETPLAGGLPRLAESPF

[2] = target: T1, human GIP receptor (human)
[3] = target: hGLP-1R (Homo sapiens, UniProt P43220)
Chain of hGLP-1R (P43220 24-463): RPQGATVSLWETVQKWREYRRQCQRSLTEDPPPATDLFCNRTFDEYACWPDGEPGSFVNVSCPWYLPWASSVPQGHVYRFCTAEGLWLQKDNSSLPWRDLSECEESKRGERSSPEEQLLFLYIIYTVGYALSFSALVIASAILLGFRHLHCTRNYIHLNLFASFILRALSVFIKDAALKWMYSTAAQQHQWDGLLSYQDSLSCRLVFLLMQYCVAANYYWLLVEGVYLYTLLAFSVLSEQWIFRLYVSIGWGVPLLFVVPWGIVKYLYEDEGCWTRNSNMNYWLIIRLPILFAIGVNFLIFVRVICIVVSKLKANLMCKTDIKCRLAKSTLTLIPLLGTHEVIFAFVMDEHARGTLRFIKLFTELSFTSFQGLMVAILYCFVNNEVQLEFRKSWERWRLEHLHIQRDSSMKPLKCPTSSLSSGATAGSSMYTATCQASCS

Row | Binder | Relative cAMP EC50 [1] [nM] | Relative cAMP EC50 [2] [nM] | Relative cAMP EC50 [3] [nM] | cAMP Rel EC50, nM (1% HSA) [1] [nM] | cAMP Rel EC50, nM (1% HSA) [2] [nM] | cAMP Rel EC50, nM (1% HSA) [3] [nM]
1 | YXQGTXTSDXSILLDKKAQXAFIEXLEEGGPSSGAPPPSGTGE (synthetic construct; SITE 2: note = 2-Aminoisobutyric Acid; SITE 6: note = alpha-methyl-2-fluoro-L-phenylalanine; SITE 10: note = 3-(4-Pyridyl)-L-alanine; SITE 17: note = Lysine is chemically modified through conjugation of the epsilon-amino group of the Lysine side chain with (gamma-Glu)2-CO-(CH2)1) [Example 664 (SEQ ID NO: 670)] | 2.12 | 0.0159 | 0.356 |  |  | 
2 | YXQGTXTSDXSILLDXKAQXAFIEXLEEGGPSSGAPPPSGTGE (synthetic construct; SITE 2: note = 2-Aminoisobutyric Acid; SITE 6: note = alpha-methyl-2-fluoro-L-phenylalanine; SITE 10: note = 3-(4-Pyridyl)-L-alanine; SITE 16: note = L-ornithine; SITE 17: note = Lysine is chemically modified through conjugation of the epsilon-amino group of the Lysine side chai) [Example 665 (SEQ ID NO: 671)] | 2.94 | 0.0223 | 0.284 |  |  | 
3 | YXQGTXTSDXSILLDKKAQXAFIEXLEEGGPSSGAPPPSGSGE (synthetic construct; SITE 2: note = 2-Aminoisobutyric Acid; SITE 6: note = alpha-methyl-2-fluoro-L-phenylalanine; SITE 10: note = 3-(4-Pyridyl)-L-alanine; SITE 17: note = Lysine is chemically modified through conjugation of the epsilon-amino group of the Lysine side chain with (gamma-Glu)2-CO-(CH2)1) [Example 666 (SEQ ID NO: 672)] | 2 | 0.0203 | 0.337 |  |  | 
4 | YXQGTXTSDXSILLDKKAQXAFIEXLEEGGPSSGAPPPSGEGE (synthetic construct; SITE 2: note = 2-Aminoisobutyric Acid; SITE 6: note = alpha-methyl-2-fluoro-L-phenylalanine; SITE 10: note = 3-(4-Pyridyl)-L-alanine; SITE 17: note = Lysine is chemically modified through conjugation of the epsilon-amino group of the Lysine side chain with (gamma-Glu)2-CO-(CH2)1) [Example 667 (SEQ ID NO: 673)] | 2.34 | 0.0217 | 0.42 |  |  | 
5 | YXQGTXTSDXSILLDKKAQXAFIEXLEEGGPSSGAPPPSGGGE (synthetic construct; SITE 2: note = 2-Aminoisobutyric Acid; SITE 6: note = alpha-methyl-2-fluoro-L-phenylalanine; SITE 10: note = 3-(4-Pyridyl)-L-alanine; SITE 17: note = Lysine is chemically modified through conjugation of the epsilon-amino group of the Lysine side chain with (gamma-Glu)2-CO-(CH2)1) [Example 668 (SEQ ID NO: 674)] | 2.03 | 0.0198 | 0.325 |  |  | 
6 | YXQGTXTSDXSILLDKKAQXAFIEXLEEGGPSSGAPPPSGTGE (synthetic construct; SITE 2: note = 2-Aminoisobutyric Acid; SITE 6: note = alpha-methyl-2-fluoro-L-phenylalanine; SITE 10: note = 3-(4-Pyridyl)-L-alanine; SITE 17: note = Lysine is chemically modified through conjugation of the epsilon-amino group of the Lysine side chain with (2-[2-(2-Amino-ethoxy))) [Example 669 (SEQ ID NO: 675)] | 1.76 | 0.0145 | 0.27 |  |  | 
7 | YXQGTXTSDXXIXLDXKAAXEFIEXLLEGGPSSGAPPPSGS (synthetic construct; SITE 2: note = 2-Aminoisobutyric Acid; SITE 6: note = alpha-methyl-2-fluoro-L-phenylalanine; SITE 10: note = 3-(4-Pyridyl)-L-alanine; SITE 11: note = alpha-methyl-L-serine; SITE 13: note = alpha-methyl-leucine; SITE 16: note = L-ornithine; SITE 17: note = Lysine is chemically mo) [Example 672 (SEQ ID NO: 678)] | 1.19 | 0.014 | 0.389 |  |  | 
8 | YXQGTXTSDXSILLDXKAQXXFIEXLEEGGPSSGAPPPSGTGE (synthetic construct; SITE 2: note = 2-Aminoisobutyric Acid; SITE 6: note = alpha-methyl-2-fluoro-L-phenylalanine; SITE 10: note = 3-(4-Pyridyl)-L-alanine; SITE 16: note = L-ornithine; SITE 17: note = Lysine is chemically modified through conjugation of the epsilon-amino group of the Lysine side chai) [Example 674 (SEQ ID NO: 680)] | 2.09 | 0.0264 | 0.21 |  |  | 
9 | YXQGTXTSDXSIXLDXKAQXXFIEXLIEGGPSSGEPPPSGE (synthetic construct; SITE 2: note = 2-Aminoisobutyric Acid; SITE 6: note = alpha-methyl-2-fluoro-L-phenylalanine; SITE 10: note = 3-(4-Pyridyl)-L-alanine; SITE 13: note = alpha-methyl-leucine; SITE 16: note = L-ornithine; SITE 17: note = Lysine is chemically modified through conjugation of the epsil) [Example 682 (SEQ ID NO: 688)] | 1.91 | 0.00661 | 0.212 |  |  | 
10 | YXQGTXTSDXXIXLDXKAAXEFIEXLVEGGPSSGAPPPSGS (synthetic construct; SITE 2: note = 2-Aminoisobutyric Acid; SITE 6: note = alpha-methyl-2-fluoro-L-phenylalanine; SITE 10: note = 3-(4-Pyridyl)-L-alanine; SITE 11: note = alpha-methyl-L-serine; SITE 13: note = alpha-methyl-leucine; SITE 16: note = L-ornithine; SITE 17: note = Lysine is chemically mo) [Example 693 (SEQ ID NO: 699)] | 2.39 | 0.0104 | 0.161 |  |  | 
11 | YXQGTXTSDXXIXLDXKAAXEFIEXLVEGGPSSGEPPPSGS (synthetic construct; SITE 2: note = 2-Aminoisobutyric Acid; SITE 6: note = alpha-methyl-2-fluoro-L-phenylalanine; SITE 10: note = 3-(4-Pyridyl)-L-alanine; SITE 11: note = alpha-methyl-L-serine; SITE 13: note = alpha-methyl-leucine; SITE 16: note = L-ornithine; SITE 17: note = Lysine is chemically mo) [Example 695 (SEQ ID NO: 701)] | 1.93 | 0.0136 | 0.254 |  |  | 
12 | YXQGTFTSDFSXXLDKKAQXAFIEYLLEGGPSSGAPPPGGS (not fully specified; free C-terminus (not amidated); synthetic construct; SITE 2: note = 2-Aminoisobutyric Acid; SITE 12: note = L-ornithine; SITE 13: note = alpha-methyl-leucine; SITE 17: note = Lysine is chemically modified through conjugation of the epsilon-amino group of the Lysine side chain with (2-[2-(2-Amino-ethoxy)-ethoxy]-acetyl)-(gamma-Glu)) [Example 196] |  |  |  | 620 | 51.4 | 458
13 | Y[Aib]QGTFTSD[4Pal]S[Dab][αMeL]LDKK([AEEA-γGlu-C18 diacid])AQ[Aib]AFIEYLIE[Aib]GPSSGAPPPSGS-NH2 [Example 803] | 9.75 | 0.232 | 2.02 |  |  | 
14 | YXQGTFTSDXSRXLDKKAQXAFIEYLIEXSPSSGAPPPSGS (synthetic construct; SITE 2: note = 2-Aminoisobutyric Acid; SITE 10: note = 3-(4-Pyridyl)-L-alanine; SITE 13: note = alpha-methyl-leucine; SITE 17: note = Lysine is chemically modified through conjugation of the epsilon-amino group of the Lysine side chain with (2-[2-(2-Amino-ethoxy)-ethoxy]-acetyl)) [Example 807] | 12.4 | 0.108 | 1.72 |  |  | 
15 | Y[Aib]QGTFTSDFS[Dap][αMeL]LDKK([γGlu-γGlu-C18 diacid])AQ[Aib]AFIEYLLE[Aib]GPSSGAPPPSGS-NH2 [Example 203] |  |  |  | 1160 | 19 | 532
16 | YXQGTFTSDFSQXLDKKAQXAFIEXLIEGGPSSGAPPPSGS (synthetic construct; SITE 2: note = 2-Aminoisobutyric Acid; SITE 13: note = alpha-methyl-leucine; SITE 17: note = Lysine is chemically modified through conjugation of the epsilon-amino group of the Lysine side chain with (2-[2-(2-Amino-ethoxy)-ethoxy]-acetyl)-(gamma-Glu)-CO-(CH2) 16-CO2H; SITE 20: n) [Example 841] | 9.71 | 0.194 | 0.336 |  |  | 
17 | YXQGTFTSDXSQXLDKKAQXAFIEWLIEGGPSSGAPPPSGS (synthetic construct; SITE 2: note = 2-Aminoisobutyric Acid; SITE 10: note = 3-(4-Pyridyl)-L-alanine; SITE 13: note = alpha-methyl-leucine; SITE 17: note = Lysine is chemically modified through conjugation of the epsilon-amino group of the Lysine side chain with (gamma-Glu)2-CO-(CH2)16-CO2H; SITE 20:) [Example 872] | 4.18 | 0.205 | 1.01 |  |  | 
18 | YXQGTFTSDFSQXLDKKAQXAFIEYLIAGGPSSGAPPPSGS (synthetic construct; SITE 2: note = 2-Aminoisobutyric Acid; SITE 13: note = alpha-methyl-leucine; SITE 17: note = Lysine is chemically modified through conjugation of the epsilon-amino group of the Lysine side chain with (2-[2-(2-Amino-ethoxy)-ethoxy]-acetyl)-(gamma-Glu)-CO-(CH2) 16-CO2H; SITE 20: n) [Example 875] | 3.65 | 0.101 | 0.771 |  |  | 
19 | YXQGTFTSDFSQXLDKKAQXAFIEYLIAGGPSSGAPPPSGS (not fully specified; synthetic construct; SITE 2: note = 2-Aminoisobutyric Acid; SITE 13: note = alpha-methyl-leucine; SITE 17: note = Lysine is chemically modified through conjugation of the epsilon-amino group of the Lysine side chain with (gamma-Glu)2-CO-(CH2)16-CO2H; SITE 20: note = 3-(4-Pyridyl)-L-alanine; SITE 41:) [Example 876] | 3.28 | 0.053 | 0.456 |  |  | 
